# Laboratory results taken from patent publication US20220017636A1 (Amgen, published 2022).
# Key:
# Assay in all cases: flow cytometry, peptide-loaded T2 cells;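 note: binding of single-chain Fv antibody constructs, raised in XenoMouse, to peptide-pulsed T2 cells measured by flow cytometry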
# [1] = target: T1, STXBP5 peptide complexed with HLA-A*02:01 on T2 cells (human)
# T1 construct: whole, on cells
# Protocol: (§1) Binding of pMAGE-HLA scFv constructs, generated from the XenoMouse, on peptide loaded T2 cells was evaluated by flow cytometry.
# [2] = target: T2, MAGEB2 peptide … (SEQ ID NO: 1) complexed with HLA-A*02:01 on the cell surface (human)
# T2 construct: whole, on cells; also called pMAGE-HLA; MAGEB2 pMHC
# Protocol: as §1
# [3] = target: T3, ADF peptide complexed with HLA-A*02:01 on T2 cells (human)
# T3 construct: whole, on cells
# Protocol: as §1
# [4] = target: T4, SLK peptide complexed with HLA-A*02:01 on T2 cells (human)
# T4 construct: whole, on cells
# Protocol: as §1
# [5] = target: T5, MB peptide complexed with HLA-A*02:01 on T2 cells (human)
# T5 construct: whole, on cells
# Protocol: as §1
# [6] = target: T6, CNDP2 peptide complexed with HLA-A*02:01 on T2 cells (human)
# T6 construct: whole, on cells; also called CNPD2
# Protocol: as §1
# [7] = target: T7, COX14 peptide complexed with HLA-A*02:01 on T2 cells (human)
# T7 construct: whole, on cells
# Protocol: as §1
# [8] = target: T8, KEA peptide complexed with HLA-A*02:01 on T2 cells (human)
# T8 construct: whole, on cells
# Protocol: as §1
# [9] = target: T9, DPYSL4 peptide complexed with HLA-A*02:01 on T2 cells (human)
# T9 construct: whole, on cells
# Protocol: as §1
# [10] = target: T10, MYOF peptide complexed with HLA-A*02:01 on T2 cells (human)
# T10 construct: whole, on cells
# Protocol: as §1
Binder,Signal/background [1],Signal/background [2],Signal/background [3],Signal/background [4],Signal/background [5],Signal/background [6],Signal/background [7],Signal/background [8],Signal/background [9],Signal/background [10]
"18181-B8 (scFv, scFv in bacterial lysate, detected with anti-Flag M2) scFv: EVQLLESGPGLVKPSQTLSLTCTVSGGSISSGGYYWSWIRQHPGKGLEWIGYISHSGSTYYNPSLKSRVTISVDTSKNQFSLNLTSVTAADTAVYYCAREKMWFGVLNYYYGMDVWGQGTTVTVSSGGGGSGGGGSGGGGSELVMTQTPLSLPVTPGEPASISCRSSQSLLHRNGYNYLDWYLQKPGQSPQLLIYLGSNRASGVPDRFIGSGSGTDFTLEISRVEAEDVGVYYCMQALQTPSFGQGTKVEIK",0.9,179,1,1,0.9,1,0.9,0.9,1,1
"18089-B2 (scFv, scFv in bacterial lysate, detected with anti-Flag M2) scFv: EVQLLESGGGLVQPGGSLRLSCAASGFTFSSYAMSWVRQAPGRGLEWVSTISISGGSTNYADSVKGRFTISRDNSKNTLYLQMNSLRAEDTAVYYCAKDGGSGWFPKLLHYGLDVWGQGTTVTVSSGGGGSGGGGSGGGGSELQMTQSPSSLSASVGDRVTITCQASQDISNYLNWYQQKPGKAPKLLIYAASSLQSGVPSRFSGSGSGTDFTLTISSLQPEDFATYYCQQSYSIPLTFGGGTKVEIK",1,318,1,1.1,1.1,1,0.9,1,1,1.1
"18181-G10 (scFv, scFv in bacterial lysate, detected with anti-Flag M2) scFv: EVQLLESGPGLVKPSQTLSLTCTVSGDSISSNPYYWSWIRQLPGKGLEWIGYISYSGSTFYNPSLKSRVTISVDTSKNQFSLNLTSVTAADTAVYYCARDRLWFGVLNYYYGMDVWGLGTTVTVSSGGGGSGGGGSGGGGSELVMTQSPLSLPVTPGEPASISCRSSQSLLHSTGYNYVDWYLQKPGQSPQLLIYLGSNRASGVPDRFSGSGSGTDFTLKISRVEAEDVGFYYCMQALQTPRTFGQGTKVEIK",1,121,1,1.1,1,1.1,1,1,1,1
"18179-E1 (scFv, scFv in bacterial lysate, detected with anti-Flag M2) scFv: EVQLLESGGGLVQPGGSLRLSCAASGFTFSNAWMSWVRQAPGKGLEWVGRIKGNTYGGTTDYAAPVKGRFTISRDDSKNTLYLQMNSLKTEDTAVYYCTTPSYSGSYYNYFSVMDVWGQGTTVTVSSGGGGSGGGGSGGGGSELVMTQSPSSLSASVGDRVTITCRTSQSISSYLNWYQQKPGRAPKLLIFAASSLQGGVPSRFSGSGSGTDFTLTISSLQPEDFATYYCQQTYSMPFTFGPGTKVDIK",1,419,0.9,1.1,1,1,0.9,1,1,1
"18181-A6 (scFv, scFv in bacterial lysate, detected with anti-Flag M2) scFv: EVQLLESGGGLVQPGGSLRLSCAASGFTFSNAWMSWVRQAPGKGLEWVGRIKGNTYGGTTDYAAPVKGRFTISRDDSKNTLYLQMNSLKTEDTAVYYCTTPSYSGSYYNYFSVMDVWGQGTTVTVSSGGGGSGGGGSGGGGSELVMTQSPSSLSASVGDRVTITCRASQSISSYLNWYQQKPGRAPKLLIFAASSLQGGVPSRFSGSGSGTDFTLTISSLQPEDFATYYCQQTYSMPFTFGPGTKLEIK",1,430,1,1.1,1,1,0.9,0.9,1,1.1
"18179-H7 (scFv, scFv in bacterial lysate, detected with anti-Flag M2) scFv: EVQLLESGGGLVQPGGSLRLSCAASGFTFSNAWMSWVRQAPGKGLEWVGRIKSKTYGGTTDYAAPVKGRFTISRDDSKNTLYLQMNSLKTEDTAVYYCTTPSYSGSYYNYFSVMDVWGQGTTVTVSSGGGGSGGGGSGGGGSELQMTQSPSSLSASVGDRVTITCRTSQSISSYLNWFQQKPGKAPKLLIFAASSLQSGVPSRFSGSGSGTDFTLTISSLQPEDFATYYCQQSYSSPFTFGPGTKVEIK",1,399,1.1,0.9,1,1,1,1,1,1.1
"18093-B11 (scFv, scFv in bacterial lysate, detected with anti-Flag M2) scFv: EVQLLESGGGLVKPGGSLRLSCAASGFTFSDYYMSWIRQAPGKGLEWVSYISKSGSTIYYADSVKGRFTISRDNAKNSLYLQMNSLRAEDTAVYYCATYNYGHFDYWGQGTLVTVSSGGGGSGGGGSGGGGSELVLTQPPSVSVAPGQTARITCGGNNIGSKSVHWYQQKPGQAPVLVVYDDSDRPSGIPERFSGSNSGNTATLTISRVEAGDEADYYCQVWDSSSDHHVVFGGGTKLTVL",1.1,219,1.1,1.1,1.2,1,1.2,1.1,1,1.2

# Second part, the binder after the results:
Signal/background [1],Signal/background [2],Signal/background [3],Signal/background [4],Signal/background [5],Signal/background [6],Signal/background [7],Signal/background [8],Signal/background [9],Signal/background [10],Binder
1.1,140,1,1,1,1,0.9,0.9,0.9,1.1,"18181-C9 (scFv, scFv in bacterial lysate, detected with anti-Flag M2) scFv: EVQLLESGPGLVKPSQTLSLTCTVSGDSISSNPYYWSWIRQLPGKGLEWIGYISYSGSTFYNPSLKSRVTISVDTSKNQFSLNLTSVTAADTAVYYCARDRLWFGVLNYYYGMDVWGLGTTVTVSSGGGGSGGGGSGGGGSELVLTQSPLSLPVTPGEPASISCRSSQSLLHRNGYNYLDWYLQKPGQSPQLLIYLGSNRASGVPDRFSGSGSGTDFTLKISRVEAEDVGVYYCMQGLQTPFTFGPGTKVEIK"
1.1,103,1.1,1.1,1,1,1.1,1,1,1.1,"18181-E2 (scFv, scFv in bacterial lysate, detected with anti-Flag M2) scFv: EVQLLESGPGLVKPSQTLSLTCTVSGDSISSNPYYWSWIRQHPGKGLEWIGYISHSGSTYYNPSLKSRVTISVDTSKNQFSLNLTSVTAADTAVYYCARDRLWFGVLNYYYGMDVWGLGTTVTVSSGGGGSGGGGSGGGGSELVMTQSPLSLPVTPGEPASISCRSSQSLLHSSGYNYLDWYLQKPGQSPQLLIYLGSNRASGVPDRFSGSGSGTDFTLKISKVEAEDVGVYYCMQALQTPRTFGQGTKVDIK"
1,443,1.1,1.1,1,1.1,1.1,0.9,1.1,1.1,"18181-F1 (scFv, scFv in bacterial lysate, detected with anti-Flag M2) scFv: EVQLLESGGGLVKPGGSLRLSCAASGFTFSNAWMSWVRQAPGKGLEWVGRIKGNTYGGTTDYAAPVKGRFTISRDDSKNTLFLQMNSLKTEDTAVYYCTTPSYSGSYYNYFSVMDVWGQGTTVTVSSGGGGSGGGGSGGGGSELVMTQSPSSLSASVGDRVTITCRTSQSISSYLNWYQQKPGRAPKLLIFAASSLQGGVPSRFSGSGSGTDFTLTISSLQPEDFATYYCQQTYSSPFTFGPGTKLEIK"
1.2,232,1,1,0.9,1.1,0.9,1,1.1,1.1,"18181-F3 (scFv, scFv in bacterial lysate, detected with anti-Flag M2) scFv: EVQLLESGGGLVQPGGSLRLSCAASGFTFSNAWMSWVRQAPGKGLEWVGRIKGNTYGGTTDYAAPVKGRFTISRDDSKNTLFLQMNSLKTEDTAVYYCTTPSYSGSYYNYFSVMDVWGQGTTVTVSSGGGGSGGGGSGGGGSELVMTQSPSSLSASVGDRVTITCRTSQSISSYLNWYQQKPGRAPKLLIFAASSLQGGVPSRFSGSGSGTDFTLTISSLQPEDFATYYCQQSYSSPFTFGPGTKVEIK"
1,489,1,1,0.9,1,1,0.9,1.1,1,"18181-G8 (scFv, scFv in bacterial lysate, detected with anti-Flag M2) scFv: EVQLLESGGGLVQPGGSLRLSCAASGFTFSNAWMSWVRQAPGKGLEWVGRIKGNTYGGTTDYAAPVKGRFTISRDDSKNTLFLQMNSLKTEDTAVYYCTTPSNSGSYYNYFSVMDVWGQGTTVTVSSGGGGSGGGGSGGGGSELVMTQSPSSLSASVGDRVTITCRTSQSISSYLNWYQQKPGKAPKLLIYAASSLQSGVPSRFSGSGSGTDFTLTISSLQPEDFATYYCQQTYSMPFTFGGGTKVEIK"
